Assay results: patent publication KR20120084755A

Molecular target: RSV A2 바이러스의 F 단백질 (Respiratory Syncytial Virus (RSV), strain A2) (UniProt P03420)
Assay: cell-based or functional assay

UniProt P03420, sequence (P03420 26-574): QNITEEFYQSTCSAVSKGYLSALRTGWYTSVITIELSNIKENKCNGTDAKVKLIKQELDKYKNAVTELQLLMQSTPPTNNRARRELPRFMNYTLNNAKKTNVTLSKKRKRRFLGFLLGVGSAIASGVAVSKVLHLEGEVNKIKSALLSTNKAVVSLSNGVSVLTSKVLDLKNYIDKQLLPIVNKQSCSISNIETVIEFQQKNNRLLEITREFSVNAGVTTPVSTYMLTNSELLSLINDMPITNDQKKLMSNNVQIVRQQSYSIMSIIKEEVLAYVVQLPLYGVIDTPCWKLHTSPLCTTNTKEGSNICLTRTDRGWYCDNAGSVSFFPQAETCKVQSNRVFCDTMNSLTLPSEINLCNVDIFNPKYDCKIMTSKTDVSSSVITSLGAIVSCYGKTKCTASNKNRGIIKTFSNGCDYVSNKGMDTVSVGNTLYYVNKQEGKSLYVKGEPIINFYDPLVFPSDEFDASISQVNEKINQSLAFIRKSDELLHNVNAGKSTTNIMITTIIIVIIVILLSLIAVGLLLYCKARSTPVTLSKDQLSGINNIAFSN

Row | Substance | IC50, RSV A2 neutralisation on HEp2 cells (standard TCID50 culture assay) [ng/㎖]
1 | AM16 (antibody) | 78.7
2 | AM23 (antibody) | 4.18
3 | D25 (antibody) | 1.28
4 | 팔리비주마브(Palivizumab) (antibody) | 152
